B1: PEP 3.09 (ssDNA)
DNA: TTTTTAAGCCCACTGCACTGTGTACATCGAACTGCACCAACGTGGGCCCATG
modifications: W indole, X amine, Y phenol modified dU [14X,19Y,23W,27X]
B2: PEP 4.10 (ssDNA)
DNA: TTTTTAAGCCCACAAGACTGTGCGTCGCACAGATTGGCATCGTCGTGCCATG
modifications: W indole, X amine, Y phenol modified dU [19,25,34,35,40,43,46]
B3: PEP 4.09 (ssDNA)
DNA: TTTTTAACACGACATATGTTCGACGGACACAGTGTGTGGCGGTCGTGCCATG
modifications: W indole, X amine, Y phenol modified dU [15,17,19,20,35,43,46]
B4: PEP 4.11 (ssDNA)
DNA: TTTTTAAGCCCACCCGAGTTCGTCCAGCGAACCACGCGCGTGTCGTGCCATG
modifications: W indole, X amine, Y phenol modified dU [19,20,23,43,46]
B5: SNAP.02 (ssDNA)
DNA: TTTTTAAGCCCACACTGCTGTGAAGGACACAGCCCGACATCGTCGTGCCATG
modifications: W indole, X amine, Y phenol modified dU [16,19,40,43,46]
B6: SNAP.03 (ssDNA)
DNA: TTTTTAAGCCCACGGGTGTTCGACAGACACAGCAATACATCGTGGGCCCATG
modifications: W indole, X amine, Y phenol modified dU [17,19,20,36,40]
B7: SNAP.04 (ssDNA)
DNA: TTTTTAAGCCCACCCACCTGTGGACATCGAACCTCACTGCAGTGGGCCCATG
modifications: W indole, X amine, Y phenol modified dU [19,27,34,38]
B8: SNAP.05 (ssDNA)
DNA: TTTTTAAGCCCACCCCGGTTCGCCAGACGAACCCCAACAGTGTGGGCCCATG
modifications: W indole, X amine, Y phenol modified dU [19,20]
B9: SNAP.06 (ssDNA)
DNA: TTTTTAAGCCCACTTCGCTGTGAGCAACGAACATCGAGCAGGTCGTGCCATG
modifications: W indole, X amine, Y phenol modified dU [14,15,19,34,43,46]
B10: SNAP.07 (ssDNA)
DNA: TTTTTAACACGACCGGGCTGTGCACATCGAACACTGCGGTCGTCGTGCCATG
modifications: W indole, X amine, Y phenol modified dU [19,27,35,40,43,46]
B11: SNAP.08 (ssDNA)
DNA: TTTTTAACACGACTGAAGTTCGCCAGGCGAACATCGTGGTGGTCGTGCCATG
modifications: W indole, X amine, Y phenol modified dU [14,19,20,34,40,43,46]
B12: PEP 2.01 (ssDNA)
DNA: TTTTTAACACGACGTTACTGTGGTCACCACAGGATGAGCCTGTCGTGCCATG
modifications: W indole, X amine, Y phenol modified dU [15,16,19,24,35,43,46]
B13: PEP 2.02 (ssDNA)
DNA: TTTTTAAGCCCACATACGTTCGATGGTCACAGATTGGGCAAGTCGTGCCATG
modifications: W indole, X amine, Y phenol modified dU [15,19,20,24,27,34,35,43,46]
B14: PEP 2.03 (ssDNA)
DNA: TTTTTAACACGACGGTGCTGTGCTGGTCACAGCACGCGCGCGTCGTGCCATG
modifications: W indole, X amine, Y phenol modified dU [16,19,24,27,43,46]
B15: PEP 2.04 (ssDNA)
DNA: TTTTTAACACGACATGGCTGTGGTCATCACAGCGCACCATTGTCGTGCCATG
modifications: W indole, X amine, Y phenol modified dU [15,19,24,27,40,43,46]
B16: PEP 2.05 (ssDNA)
DNA: TTTTTAAGCCCACCCTACTGTGGTCACCACAGTGCAAGCCCGTCGTGCCATG
modifications: W indole, X amine, Y phenol modified dU [16,19,24,43,46]
B17: PEP 2.06 (ssDNA)
DNA: TTTTTAACACGACCGGCCTGTGGTCAGCACAGACTGTTGTGGTCGTGCCATG
modifications: W indole, X amine, Y phenol modified dU [19,24,35,38,40,43,46]
B18: PEP 2.07 (ssDNA)
DNA: TTTTTAACACGACGTCGCTGTGGTCAACGAACAGATACAACGTCGTGCCATG
modifications: W indole, X amine, Y phenol modified dU [15,19,24,36,43,46]
B19: PEP 2.08 (ssDNA)
DNA: TTTTTAAGCCCACGTTTGTTCGGTGGTCACAGCACGCCACGGTCGTGCCATG
modifications: W indole, X amine, Y phenol modified dU [15,16,17,19,20,24,27,43,46]
B20: PEP 2.09 (ssDNA)
DNA: TTTTTAACACGACATAGGTTCGCTGGTCACAGAATGTTGTGGTGGGCCCATG
modifications: W indole, X amine, Y phenol modified dU [15,19,20,24,27,35,38,40]
B21: PEP 2.10 (ssDNA)
DNA: TTTTTAAGCCCACTGGCCTGTGGTCAGCGAACTGTGCGCTGGTGGGCCCATG
modifications: W indole, X amine, Y phenol modified dU [14,19,24,35,40]
B22: PEP 2.11 (ssDNA)
DNA: TTTTTAAGCCCACTTGGCTGTGCACATCACAGAACAAGCAGGTGGGCCCATG
modifications: W indole, X amine, Y phenol modified dU [14,15,19,27]
B23: PEP 2.12 (ssDNA)
DNA: TTTTTAACACGACTAGACTGTGTATCCCACAGGGCAATGTGGTCGTGCCATG
modifications: W indole, X amine, Y phenol modified dU [14,19,23,25,38,40,43,46]
B24: PEP 2.13 (ssDNA)
DNA: TTTTTAAGCCCACATGCCTGTGGTCATCGAACATTGGGCCGGTCGTGCCATG
modifications: W indole, X amine, Y phenol modified dU [15,19,24,27,34,35,43,46]
B25: PEP 2.14 (ssDNA)
DNA: TTTTTAAGCCCACGGGTCTGTGGTCACCGAACGACGTGGCAGTGGGCCCATG
modifications: W indole, X amine, Y phenol modified dU [17,19,24]
B26: PEP 2.15 (ssDNA)
DNA: TTTTTAACACGACGTTACTGTGGTCACCACAGGATGAGCTTGTCGTGCCATG
modifications: W indole, X amine, Y phenol modified dU [15,16,19,24,35,40,43,46]
B27: PEP 2.16 (ssDNA)
DNA: TTTTTAAGCCCACATAGGTTCGGTGGTCACAGTGTGGTGCGGTGGGCCCATG
modifications: W indole, X amine, Y phenol modified dU [15,19,20,24,27,35,38]
B28: PEP 2.17 (ssDNA)
DNA: TTTTTAACACGACGTTACTGTGGTCACCACAGGATGAGGCTGTCGTGCCATG
modifications: W indole, X amine, Y phenol modified dU [15,16,19,24,35,43,46]
B29: PEP 2.18 (ssDNA)
DNA: TTTTTAACACGACGTTACTGTGGTCATCACAGGATGAGCCTGTCGTGCCATG
modifications: W indole, X amine, Y phenol modified dU [15Y,16W,19Y,24W,27X,35Y,43X,46Y]

molecular target: T1, SNAP25 full length (FLAG and MYC tagged) (Homo sapiens, UniProt P60880 SEQ:12-217); experiment: ELONA; full-length SNAP25; conditions: tags: FLAG and MYC
T1 sequence (P60880 whole entry, the tested form may be a part): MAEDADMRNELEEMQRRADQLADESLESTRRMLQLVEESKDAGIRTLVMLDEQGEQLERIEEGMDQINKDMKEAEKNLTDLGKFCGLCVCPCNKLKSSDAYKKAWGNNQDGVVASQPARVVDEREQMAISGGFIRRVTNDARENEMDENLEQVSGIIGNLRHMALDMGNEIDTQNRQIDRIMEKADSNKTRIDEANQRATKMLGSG
From the text: (§1) The data in Table 2 was collected by running direct ELISA assays on the 96 X-aptamers, elucidating their ability to bind SNAP25, SNAP25 fragments (PEP1, PEP2, PEP3, and PEP4), and a negative control. The X-aptamers were biotinylated and immobilized onto streptavidin-coated plates and were utilized as detection molecules. Higher numbers represent strong binding. The negative control peptide is a random peptide to measure the amount of binding that occurs to a random amino acid sequence.

Going from B1 to B2, the binding signal falls from 168 ELISA signal to 4 ELISA signal.

B3 and B4 are the same in binding signal: 0 ELISA signal for the first, 0 ELISA signal for the second.

molecular target: T1, SNAP25 full length (FLAG and MYC tagged); experiment: ELONA; conditions: tags: FLAG and MYC
From the text: as §1

Going from B5 to B6, the binding signal falls from 95 ELISA signal to 92 ELISA signal.

Compared with B7, B8 is lower in binding signal: 83 ELISA signal for the first, 75 ELISA signal for the second.

Going from B9 to B10, the binding signal falls from 45 ELISA signal to 38 ELISA signal.

B11 was tested, and the binding signal was 35 ELISA signal.

Molecular target: T2, SNAP25 Peptide 2 (PEP2) (Homo sapiens, UniProt P60880 SEQ:1-37)
T2 chain: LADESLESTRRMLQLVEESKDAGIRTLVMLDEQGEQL
Experiment: ELONA
Conditions: not given
From the text: as §1

Going from B12 to B13, the binding signal falls from 592 ELISA signal to 394 ELISA signal.

First: B14
Second: B15
The binding signal of the first is higher: 221 ELISA signal for the first, 190 ELISA signal for the second.

Going from B16 to B17, the binding signal falls from 159 ELISA signal to 102 ELISA signal.

B18 and B19 are the same in binding signal: 65 ELISA signal for the first, 65 ELISA signal for the second.

First: B20
Second: B21
The binding signal of the first is higher: 46 ELISA signal for the first, 43 ELISA signal for the second.

Compared with B22, B23 is lower in binding signal: 40 ELISA signal for the first, 37 ELISA signal for the second.

B24 and B25 are the same in binding signal: 36 ELISA signal for the first, 36 ELISA signal for the second.

First: B26
Second: B27
The binding signal of the first is higher: 36 ELISA signal for the first, 31 ELISA signal for the second.

Compared with B28, B29 is lower in binding signal: 30 ELISA signal for the first, 26 ELISA signal for the second.

Molecular target: T3, SNAP25 Peptide 3 (PEP3; only a fragment of it is a SNAP25 subsequence) (Homo sapiens, UniProt P60880 SEQ:1-33)
T3 chain: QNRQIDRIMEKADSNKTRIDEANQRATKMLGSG
Experiment: ELONA
Conditions: not given
From the text: as §1

B1 showed a binding signal of 196 ELISA signal.
